Measurements reported in patent US5807824A, “C5A receptor antagonists having substantially no agonist activity” (priority 1995, dated 1998).
Where a chain is given by its changes, count along the chain named. Names may count otherwise. Values belong to the molecule of their own block, whether it stands above or below them. Where a SMILES comes first, the peptide text is derived from it.

Tests used:
C5a receptor [1] = target: T1, C5a receptor (Homo sapiens, UniProt P21730); test: C5a induced Ca++ rise assay in fura-2 loaded neutrophils; format: cell-based; settings: for Concentration up to which tested with agonist activity not detected: calcium rise assay; for IC50 / EC50: Table 6, Example 10 comparison with decapeptide
T1 construct: Neutrophils were purified from human peripheral blood; endogenous in cells; host or cells: neutrophils from human peripheral blood
T1 sequence (P21730 1-350): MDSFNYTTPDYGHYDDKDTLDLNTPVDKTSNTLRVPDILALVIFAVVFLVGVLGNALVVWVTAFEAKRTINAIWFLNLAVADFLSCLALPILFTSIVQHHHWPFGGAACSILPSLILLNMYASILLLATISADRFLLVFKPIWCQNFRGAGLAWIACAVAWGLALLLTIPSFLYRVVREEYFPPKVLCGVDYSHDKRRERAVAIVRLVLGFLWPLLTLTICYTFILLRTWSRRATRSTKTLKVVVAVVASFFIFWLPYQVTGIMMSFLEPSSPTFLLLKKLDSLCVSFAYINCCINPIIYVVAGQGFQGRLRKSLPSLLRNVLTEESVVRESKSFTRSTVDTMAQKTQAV
Text: The antagonism of the instant C5a analogues may be quantified as an IC50 in the calcium rise assay disclosed in Seligmann et al., Agents and Actions 21:375-378 (1987), described in detail in Example 7.
See Hugli et al., CRC Crit. Rev. Immunol. 1:321-326 (1981) and PCT WO 92/10205. A quantitative measure of this property may also be obtained using the calcium rise assay disclosed in Seligmann et al., supra, also described in Example 7. EC50 is a measure of agonistic activity.
Recombinant human C5a was dissolved in Hanks buffer containing 0.01% Tween-20, and all stock dilutions of C5a were made in this buffer. The acetoxymethyl ester of fura-2 (fura 2AM, Molecular Probes) was dissolved in DMSO. Neutrophils were purified from human peripheral blood by sedimentation in 6% hetastarch (HESPAN, DuPont, Waukegan, Ill., followed by counter flow elutriation as described in Chapman-Kirkland et al., J. Immunol. Meth. 142:95-104 (1991). Purified cells (2×10^6/ ml) were mixed with 0.2 uM fura- 2AM and incubated for 30 min at 37° C. in HEPES buffered Hanks solution without calcium or magnesium. Fifteen minutes before the assay, the cell suspension was transferred to a curvette containing a stir bar and calcium was added to 1 mM. The cell suspension was incubated with stirring at 37° C. Assays were terminated within 5 h of cell purification and a standard control response was obtained periodically to insure that the cell responses were not changing over the time of the experiment. The amount of fluorescence was determined using an SLM 8000 spectrofluorometer (SLM-Aminco Instruments, Urbana, Ill.). Curvettes were placed in the fluorometer and after obtaining a baseline for 10 sec, the C5a receptor antagonists to be tested for antagonistic properties were added and any change in fluoresence excitation ratio of 340 nm/380 nm (emission of 510 nm) was measured. Forty seconds after analogue addition, a challenge dose of C5a was added to a final concentration of 100 pM and the resulting change in excitation ratio was measured.
IC50 values were used as a measure of antagonist potency. These values are defined as the concentration of C5a analogue needed to reduce the calcium rise response of the 100 pM C5a challenge dose by 50%. EC50 values were used as a measure of agonist potency. […]

C5a receptor [2] = target: T1, C5a receptor; test: Receptor binding assay: displacement of [125I]Bolton-Hunter labelled C5a from PMNL membranes
Method: C5a and C5a receptor antagonists were tested for their affinity for the C5a receptor. […] PMNLs were resuspended in Hanks balanced salt solution, without Ca^++ and Mg^++ and which contained 10 mM HEPES at pH 7.3, 2.5 mM MgCl2, 100 units/ml DNAse I, 0.1 mM PMSF, 10 μg/ml aprotonin and 10 μg/ml leupeptin. They were then equilibrated at 400 psi for 20 min at 4° C. in a nitrogen cavitation bomb. After evacuation into 3 volumes 0.5M KHCO3 containing 25 mM EDTA and the protease inhibitors listed above, the gelatinous material was removed with forceps and the mixture was centrifuged at 400×g for 10 min at 4° C. The resulting supernatant was centrifuged at 50,000×g for 60 min at 4° C. The pellets from the aliquots representing 200×10^6 cells were stored at -70° C. For binding studies, these membranes were resuspended at an equivalent of 20×10^6 cells/ml in 50 mM HEPES at pH 7.3, containing 1 mM CaCl2, 5 mM MgCl2, 0.1 mM PMSF, 0.1% bacitracin and 0.5% BSA.
Nonspecific binding was determined in the presence of 10 nM unlabelled C5a. The binding reaction was initiated by the addition of the PMNL membranes and was continued for 120 min at 4° C. Bound and free radioactivity were separated by vacuum filtration through GF/C glass fiber filters (Whatman), pretreated for 90 min with 0.05% PEI (polyethyleneimine) using a Cell Harvester (Brandel, Gaithersburg, Md.). Filters were washed with 3×5 ml of ice-cold 5 mM Tris buffer at pH 7.4 and counted in a multiwell Gamma counter (Genesys). Data were analyzed using the non-linear regression analysis program, RS/1 (Bolt, Beranek and Newman, Boston) and expressed as IC50 values. The results are set forth below in Table 4 as Ki values using the Cheng-Presoff equation. See Braunwalder et al., supra.

[3] = Table 4, [125I]BH-C5a 4.0 pM, PMNL membranes, Cheng-Prusoff
[4] = Table 6, Example 10 comparison with decapeptide

Agonist / antagonist character (C5a receptor [1]; stated in words): significant agonist activity
Molecule: CC[C@H](C)[C@H](N)C(=O)N[C@@H](CO)C(=O)N[C@@H](Cc1ccccc1)C(=O)N[C@@H](CCCCN)C(=O)N[C@@H](CC(=O)O)C(=O)N[C@@H](CCSC)C(=O)N[C@@H](CCC(N)=O)C(=O)N[C@@H](CC(C)C)C(=O)NCC(=O)N[C@@H](CCCNC(=N)N)C(=O)O [Decapeptide, reference compound] (H-ISFKDMQLGR-OH)

Ki (C5a receptor [2]; [3]): 2800 pM
B1: 8 Cys: cysteine-adduct of the C5a analogue No. 8 (protein, UniProt P01031 678-751, looked up, variant T1M C27S Q71C)
C5a anaphylatoxin: MLQKKIEEIAAKYKHSVVKKCCYDGASVNNDETCEQRAARISLGPRCIKAFTECCVVASQLRANISHKDMCLGR
modifications: C5a anaphylatoxin cysteine adduct

Ki (C5a receptor [2]; [3]): 100 pM
Concentration up to which tested with agonist activity not detected (C5a receptor [1]): > 0.8 µM
B2: C5a (1-71, T1M, C27S, H67F, Q71C) (protein, UniProt P01031 678-751, looked up, variant T1M C27S H67F Q71C)
C5a anaphylatoxin: B1 C5a anaphylatoxin with H67F
modifications: C5a anaphylatoxin truncated to residues 1-71

Ki (C5a receptor [2]; [3]): 900 pM
Ki (C5a receptor [2]; [4]): 150 pM
IC50 (C5a receptor [1]): 621000 pM
Concentration up to which tested with agonist activity not detected (C5a receptor [1]): > 1.5 µM
B3: C5a (1-72, T1M, C27S, L72C) (protein, UniProt P01031 678-751, looked up, variant T1M C27S L72C)
C5a anaphylatoxin: B1 C5a anaphylatoxin with C71Q, L72C
modifications: C5a anaphylatoxin truncated to residues 1-72

Ki (C5a receptor [2]; [4]): 30 pM
EC50 (C5a receptor [1]): 600 pM
B4: C5a (1-73, T1M, C27S, G73C) (protein, UniProt P01031 678-751, looked up, variant T1M C27S G73C)
C5a anaphylatoxin: B1 C5a anaphylatoxin with C71Q, G73C
modifications: C5a anaphylatoxin truncated to residues 1-73
notes: agonist, included for comparison

Ki (C5a receptor [2]; [3]): 150 pM
B5: C5a (1-71, T1M, C275, Q71H) (protein, UniProt P01031 678-751, looked up, variant T1M C27S Q71H)
C5a anaphylatoxin: B1 C5a anaphylatoxin with C71H
modifications: C5a anaphylatoxin
notes: as for B4

Ki (C5a receptor [2]; [3]): 7500 pM
B6: C5a (1-71, T1M, C27S, Q71S) (protein, UniProt P01031 678-751, looked up, variant T1M C27S Q71S)
C5a anaphylatoxin: B1 C5a anaphylatoxin with C71S
modifications: C5a anaphylatoxin
notes: as for B4

Ki (C5a receptor [2]; [3]): 350 pM
B7: C5a (1-71, T1M, C27S, Q71R) (protein, UniProt P01031 678-751, looked up, variant T1M C27S Q71R)
C5a anaphylatoxin: B1 C5a anaphylatoxin with C71R
modifications: C5a anaphylatoxin truncated to residues 1-71
notes: as for B4

Ki (C5a receptor [2]; [3]): 8500 pM
B8: C5a (1-71, T1M, C275, Q71D) (protein, UniProt P01031 678-751, looked up, variant T1M C27S Q71D)
C5a anaphylatoxin: B1 C5a anaphylatoxin with C71D
modifications: C5a anaphylatoxin
notes: as for B4

Ki (C5a receptor [2]; [3]): 35 pM
B9: C5a (1-71, T1M, C275, Q71L) (protein, UniProt P01031 678-751, looked up, variant T1M C27S Q71L)
C5a anaphylatoxin: B1 C5a anaphylatoxin with C71L
modifications: C5a anaphylatoxin
notes: as for B4

Ki (C5a receptor [2]; [3]): 3000 pM
B10: C5a (1-71, T1M, C27S) (protein, UniProt P01031 678-751, looked up, variant T1M C27S)
C5a anaphylatoxin: B1 C5a anaphylatoxin with C71Q
modifications: C5a anaphylatoxin
notes: as for B4

EC50 (C5a receptor [1]): 70 pM
B11: C5a: human C5a, a 74-amino acid polypeptide; recombinant human C5a used as reference agonist (protein, UniProt P01031 678-751, looked up)
C5a anaphylatoxin: B1 C5a anaphylatoxin with M1T, S27C, C71Q
modifications: C5a anaphylatoxin

Ki (C5a receptor [2]; [3]): 400 pM
Ki (C5a receptor [2]; [4]): 350 pM
IC50 (C5a receptor [1]): 859000 pM
Concentration up to which tested with agonist activity not detected (C5a receptor [1]): > 1 µM
B12: C5a (1-70, T1M, C275, M7OC) (protein, UniProt P01031 678-747, looked up, variant T1M C27S M70C)
chain: MLQKKIEEIAAKYKHSVVKKCCYDGASVNNDETCEQRAARISLGPRCIKAFTECCVVASQLRANISHKDC
modifications: C5a anaphylatoxin

Ki (C5a receptor [2]; [4]): 60 pM
IC50 (C5a receptor [1]): 84000 pM
B13: C5a (1-68, T1M, C27S, K68C) (protein, UniProt P01031 678-745, looked up, variant T1M C27S K68C)
chain: MLQKKIEEIAAKYKHSVVKKCCYDGASVNNDETCEQRAARISLGPRCIKAFTECCVVASQLRANISHC
modifications: C5a anaphylatoxin
